Tests used:
[1] = molecular target: T1, Anti-CD28 scFv (VH-linker 1-VL) (biotinylated for capture on neutravidin plates); assay: phage ELISA, scFv captured on plate;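 also: crude clonal phage supernatants added to wells preincubated with soluble CD28 or with blocking buffer only, bound phage read out by HRP-linked anti-M13 antibody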
Description: (§1) Clonal phage were harvested as crude supernatants and screened via standard enzyme linked immunosorbent assays (ELISAs). […] Prior to the addition of clonal phage, wells were incubated with blocking buffer and CD28 soluble protein or blocking buffer alone. Without washing or aspirating, clonal phage supernatants were then added to the wells and incubated for a short time. Wells were then washed followed by detection of bound phage using a horse radish peroxidase conjugated anti-M13 antibody.

[2] = molecular target: T1, Anti-CD28 scFv (VH-linker 1-VL); assay: phage ELISA, scFv captured on plate, competitor soluble CD28;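 also: crude clonal phage supernatants added to wells pre-incubated with soluble CD28 or with blocking buffer only as control, bound phage read out with HRP-linked anti-M13 antibody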
Description: as §1

T1 sequence (scFv, as listed by the source): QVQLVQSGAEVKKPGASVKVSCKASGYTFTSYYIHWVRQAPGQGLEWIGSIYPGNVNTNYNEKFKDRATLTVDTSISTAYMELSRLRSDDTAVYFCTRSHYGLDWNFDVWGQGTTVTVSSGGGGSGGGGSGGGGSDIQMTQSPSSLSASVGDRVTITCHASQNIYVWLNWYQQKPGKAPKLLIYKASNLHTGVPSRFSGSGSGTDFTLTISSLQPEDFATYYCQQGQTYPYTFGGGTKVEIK

B1: Phage-148 (peptide)
peptide: MHWCPEYLWNECFA
- Phage binding ELISA CD28 scFv signal [1]: 1.69
- Phage binding ELISA CD28 scFv signal in presence of CD28 [2]: 0.092

B2: Phage-147 (peptide)
peptide: MHWCPRDLWVVCFN
- Phage binding ELISA CD28 scFv signal [1]: 1.83
- Phage binding ELISA CD28 scFv signal in presence of CD28 [2]: 0.112

B3: Phage-145 (peptide)
peptide: MDWCPKHLWIECFA
- Phage binding ELISA CD28 scFv signal [1]: 1.98
- Phage binding ELISA CD28 scFv signal in presence of CD28 [2]: 0.132

B4: Phage-136 (peptide)
peptide: MHWCPIYLWDECFN
- Phage binding ELISA CD28 scFv signal [1]: 2.23
- Phage binding ELISA CD28 scFv signal in presence of CD28 [2]: 0.193

B5: Phage-180 (peptide)
peptide: MHWCPRYLWDECFN
- Phage binding ELISA CD28 scFv signal [1]: 0.55
- Phage binding ELISA CD28 scFv signal in presence of CD28 [2]: 0.127

B6: Phage-135 (peptide)
peptide: MDWCPKFLWHECFS
- Phage binding ELISA CD28 scFv signal [1]: 2.28
- Phage binding ELISA CD28 scFv signal in presence of CD28 [2]: 0.142

B7: Phage-128 (peptide)
peptide: MDWCPRDLWIECFF
- Phage binding ELISA CD28 scFv signal [1]: 2.37
- Phage binding ELISA CD28 scFv signal in presence of CD28 [2]: 0.137

B8: Phage-154 (peptide)
peptide: MDWCPRDLWNVCFA
- Phage binding ELISA CD28 scFv signal [1]: 1.38
- Phage binding ELISA CD28 scFv signal in presence of CD28 [2]: 0.145

B9: Phage-139 (peptide)
peptide: MDWCPRDLWDVCFA
- Phage binding ELISA CD28 scFv signal [1]: 2.16
- Phage binding ELISA CD28 scFv signal in presence of CD28 [2]: 0.28

B10: Phage-149 (peptide)
peptide: MDWCPRDLWAVCFA
- Phage binding ELISA CD28 scFv signal [1]: 1.67
- Phage binding ELISA CD28 scFv signal in presence of CD28 [2]: 0.089

B11: Phage-169 (peptide)
peptide: MDWCPRDLWNVCFN
- Phage binding ELISA CD28 scFv signal [1]: 0.74
- Phage binding ELISA CD28 scFv signal in presence of CD28 [2]: 0.108

B12: Phage-130 (peptide)
peptide: MDWCPRYLWDACFF
- Phage binding ELISA CD28 scFv signal [1]: 2.34
- Phage binding ELISA CD28 scFv signal in presence of CD28 [2]: 0.168

B13: Phage-162 (peptide)
peptide: MNWCPTDLWHECFN
- Phage binding ELISA CD28 scFv signal [1]: 1.09
- Phage binding ELISA CD28 scFv signal in presence of CD28 [2]: 0.095

B14: Phage-155 (peptide)
peptide: MHWCPLHLWNECYH
- Phage binding ELISA CD28 scFv signal [1]: 1.37
- Phage binding ELISA CD28 scFv signal in presence of CD28 [2]: 0.113

B15: Phage-144 (peptide)
peptide: MDWCPRHLWYACFN
- Phage binding ELISA CD28 scFv signal [1]: 2.01
- Phage binding ELISA CD28 scFv signal in presence of CD28 [2]: 0.159

B16: Phage-150 (peptide)
peptide: MDWCPRHLWNVCFS
- Phage binding ELISA CD28 scFv signal [1]: 1.61
- Phage binding ELISA CD28 scFv signal in presence of CD28 [2]: 0.176

B17: Phage-204 (peptide)
peptide: MDWCPRHMWNVCFS
- Phage binding ELISA CD28 scFv signal [1]: 2.25
- Phage binding ELISA CD28 scFv signal in presence of CD28 [2]: 0.13

B18: Phage-132 (peptide)
peptide: MDWCPTYLWFECFN
- Phage binding ELISA CD28 scFv signal [1]: 2.33
- Phage binding ELISA CD28 scFv signal in presence of CD28 [2]: 0.224

B19: Phage-143 (peptide)
peptide: LDWCPLNLWDLCYF
- Phage binding ELISA CD28 scFv signal [1]: 2.03
- Phage binding ELISA CD28 scFv signal in presence of CD28 [2]: 0.095

B20: Phage-152 (peptide)
peptide: MDWCPKYLWDKCFH
- Phage binding ELISA CD28 scFv signal [1]: 1.54
- Phage binding ELISA CD28 scFv signal in presence of CD28 [2]: 0.109

B21: Phage-120 (peptide)
peptide: MDWCPRDLWHACFS
- Phage binding ELISA CD28 scFv signal [1]: 2.41
- Phage binding ELISA CD28 scFv signal in presence of CD28 [2]: 0.173

B22: Phage-118 (peptide)
peptide: MDWCPRHLWDECFF
- Phage binding ELISA CD28 scFv signal [1]: 2.46
- Phage binding ELISA CD28 scFv signal in presence of CD28 [2]: 0.663

B23: Phage-153 (peptide)
peptide: MDWCPRHLWDLCFF
- Phage binding ELISA CD28 scFv signal [1]: 1.4
- Phage binding ELISA CD28 scFv signal in presence of CD28 [2]: 0.182

B24: Phage-133 (peptide)
peptide: MDWCPRFLWDECFF
- Phage binding ELISA CD28 scFv signal [1]: 2.28
- Phage binding ELISA CD28 scFv signal in presence of CD28 [2]: 0.246

B25: Phage-166 (peptide)
peptide: MDWCPRHLWDLCFA
- Phage binding ELISA CD28 scFv signal [1]: 0.925
- Phage binding ELISA CD28 scFv signal in presence of CD28 [2]: 0.096

B26: Phage-161 (peptide)
peptide: MDWCPRHLWDQCFA
- Phage binding ELISA CD28 scFv signal [1]: 1.12
- Phage binding ELISA CD28 scFv signal in presence of CD28 [2]: 0.144

B27: Phage-134 (peptide)
peptide: MDWCPSYLWHECFA
- Phage binding ELISA CD28 scFv signal [1]: 2.28
- Phage binding ELISA CD28 scFv signal in presence of CD28 [2]: 0.198

B28: Phage-129 (peptide)
peptide: MDWCPSYLWTVCFA
- Phage binding ELISA CD28 scFv signal [1]: 2.34
- Phage binding ELISA CD28 scFv signal in presence of CD28 [2]: 0.096

B29: Phage-157 (peptide)
peptide: MDWCPRSLWSYCFH
- Phage binding ELISA CD28 scFv signal [1]: 1.33
- Phage binding ELISA CD28 scFv signal in presence of CD28 [2]: 0.152

B30: Phage-119 (peptide)
peptide: MDWCPRYLWHMCYS
- Phage binding ELISA CD28 scFv signal [1]: 2.42
- Phage binding ELISA CD28 scFv signal in presence of CD28 [2]: 1.17

B31: Phage-137 (peptide)
peptide: MDWCPRYLWHECFH
- Phage binding ELISA CD28 scFv signal [1]: 2.19
- Phage binding ELISA CD28 scFv signal in presence of CD28 [2]: 0.308

B32: Phage-151 (peptide)
peptide: MDFCPISLWHECFF
- Phage binding ELISA CD28 scFv signal [1]: 1.58
- Phage binding ELISA CD28 scFv signal in presence of CD28 [2]: 0.129

B33: Phage-121 (peptide)
peptide: MDWCPRDLWHVCFF
- Phage binding ELISA CD28 scFv signal [1]: 2.41
- Phage binding ELISA CD28 scFv signal in presence of CD28 [2]: 0.268

B34: Phage-178 (peptide)
peptide: LDWCPRDLWHVCFF
- Phage binding ELISA CD28 scFv signal [1]: 0.61
- Phage binding ELISA CD28 scFv signal in presence of CD28 [2]: 0.105

B35: Phage-131 (peptide)
peptide: MDWCPRSLWIYCFN
- Phage binding ELISA CD28 scFv signal [1]: 2.34
- Phage binding ELISA CD28 scFv signal in presence of CD28 [2]: 0.401

B36: Phage-146 (peptide)
peptide: MDWCPRHLWSECFY
- Phage binding ELISA CD28 scFv signal [1]: 1.92
- Phage binding ELISA CD28 scFv signal in presence of CD28 [2]: 0.199

B37: Phage-140 (peptide)
peptide: MDWCPMDLWDVCFN
- Phage binding ELISA CD28 scFv signal [1]: 2.15
- Phage binding ELISA CD28 scFv signal in presence of CD28 [2]: 0.263

B38: Phage-156 (peptide)
peptide: MDWCPKHLWHQCFH
- Phage binding ELISA CD28 scFv signal [1]: 1.35
- Phage binding ELISA CD28 scFv signal in presence of CD28 [2]: 0.108

B39: Phage-126 (peptide)
peptide: MDWCPRFLWNECFN
- Phage binding ELISA CD28 scFv signal [1]: 2.4
- Phage binding ELISA CD28 scFv signal in presence of CD28 [2]: 0.503

B40: Phage-125 (peptide)
peptide: MDWCPVSLWHVCFY
- Phage binding ELISA CD28 scFv signal [1]: 2.4
- Phage binding ELISA CD28 scFv signal in presence of CD28 [2]: 0.409

B41: Phage-160 (peptide)
peptide: MHWCPRALWHECFN
- Phage binding ELISA CD28 scFv signal [1]: 1.18
- Phage binding ELISA CD28 scFv signal in presence of CD28 [2]: 0.144

B42: Phage-211 (peptide)
peptide: MDWCPRNMWTVCFL
- Phage binding ELISA CD28 scFv signal [1]: 1.12

B43: Phage-123 (peptide)
peptide: MDWCPIHLWNECFA
- Phage binding ELISA CD28 scFv signal [1]: 2.4
- Phage binding ELISA CD28 scFv signal in presence of CD28 [2]: 0.203

B44: Phage-158 (peptide)
peptide: MDWCPRYLWTECFF
- Phage binding ELISA CD28 scFv signal [1]: 1.26
- Phage binding ELISA CD28 scFv signal in presence of CD28 [2]: 0.244

B45: Phage-142 (peptide)
peptide: MDWCPVILWDFCFN
- Phage binding ELISA CD28 scFv signal [1]: 2.03
- Phage binding ELISA CD28 scFv signal in presence of CD28 [2]: 0.173

B46: Phage-159 (peptide)
peptide: MAWCPMNLWDQCFF
- Phage binding ELISA CD28 scFv signal [1]: 1.2
- Phage binding ELISA CD28 scFv signal in presence of CD28 [2]: 0.145

B47: Phage-124 (peptide)
peptide: MDWCPRPLWDMCFF
- Phage binding ELISA CD28 scFv signal [1]: 2.4
- Phage binding ELISA CD28 scFv signal in presence of CD28 [2]: 0.138

B48: Phage-141 (peptide)
peptide: MDWCPRSLWNVCFF
- Phage binding ELISA CD28 scFv signal [1]: 2.13
- Phage binding ELISA CD28 scFv signal in presence of CD28 [2]: 0.356

B49: Phage-122 (peptide)
peptide: MDWCPRDLWDQCYA
- Phage binding ELISA CD28 scFv signal [1]: 2.41
- Phage binding ELISA CD28 scFv signal in presence of CD28 [2]: 0.201

B50: Phage-138 (peptide)
peptide: MDWCPTNLWHECFA
- Phage binding ELISA CD28 scFv signal [1]: 2.16
- Phage binding ELISA CD28 scFv signal in presence of CD28 [2]: 0.096

B51: Phage-127 (peptide)
peptide: MDWCPRALWNECFA
- Phage binding ELISA CD28 scFv signal [1]: 2.38
- Phage binding ELISA CD28 scFv signal in presence of CD28 [2]: 0.375

B52: Phage-117 (peptide)
peptide: MDWCPRYLWFECFS
- Phage binding ELISA CD28 scFv signal [1]: 2.46
- Phage binding ELISA CD28 scFv signal in presence of CD28 [2]: 0.235

Source: patent US20230357447A1 (JANUX THERAPEUTICS, published 2023)
